From publication PMC5399293, “Hierarchical assembly of centriole subdistal appendages via centrosome binding proteins CCDC120 and CCDC68” (Nature Communications, 2017)

Biological target: T1, MBP-hNinein-N (1–480 aa) (human, UniProt Q8N4C6 1-480)
T1 construct: human Ninein residues 1-480; also called purified 1–480 aa of hNinein
T1 sequence (looked up): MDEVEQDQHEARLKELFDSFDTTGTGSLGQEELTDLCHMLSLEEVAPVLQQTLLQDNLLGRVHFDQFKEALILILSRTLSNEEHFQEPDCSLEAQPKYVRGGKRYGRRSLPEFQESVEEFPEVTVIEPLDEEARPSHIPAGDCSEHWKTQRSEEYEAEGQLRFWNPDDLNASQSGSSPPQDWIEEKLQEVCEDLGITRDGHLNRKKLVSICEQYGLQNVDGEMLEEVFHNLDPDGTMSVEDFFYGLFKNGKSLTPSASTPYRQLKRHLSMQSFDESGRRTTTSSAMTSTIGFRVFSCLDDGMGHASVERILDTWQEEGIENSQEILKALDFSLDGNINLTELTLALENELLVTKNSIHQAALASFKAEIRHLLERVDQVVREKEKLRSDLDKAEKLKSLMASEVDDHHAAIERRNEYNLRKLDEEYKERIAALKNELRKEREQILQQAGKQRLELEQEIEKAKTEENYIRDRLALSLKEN
Assay: pull-down; in vitro binding: purified GST-CCDC120 (1–320 aa) incubated with amylose resin beads coated with MBP fusions, 4 °C; immunoblot with anti-GST
Details: both partners purified

B1: GST-tagged CCDC120 (1–320 aa) (domain or fragment, human, UniProt Q96HB5-1 1-320, looked up)
chain: MEVKGQLISSPTFNAPAALFGEAAPQVKSERLRGLLDRQRTLQEALSLKLQELRKVCLQEAELTGQLPPECPLEPGERPQLVRRRPPTARAYPPPHPNQAHHSLCPAEELALEALEREVSVQQQIAAAARRLALAPDLSTEQRRRRRQVQADALRRLHELEEQLRDVRARLGLPVLPLPQPLPLSTGSVITTQGVCLGMRLAQLSQEDVVLHSESSSLSESGASHDNEEPHGCFSLAERPSPPKAWDQLRAVSGGSPERRTPWKPPPSDLYGDLKSRRNSVASPTSPTRSLPRSASSFEGRSVPATPVLTRGAGPQLCKP
notes: human CCDC120 (NM_001271836.1) residues 1-320; also called GST-CCDC120 (1–320 aa); 1–320 aa of CCDC120
binding result: binds
